Reference: patent US20190345230A1
Where a chain is given by its changes, count along the chain named.

B1: monoclonal antibody 12G6 (antibody, V domains shown)
VH: EVHLQQSGPELVKPGASVKMSCEASGYTFTDYYVAWVKQSPGESFEWIGRVNPYSGGTSYNQKFKGKATLIVDKSSSTAYMELSSLTSEDSAVYYCARWDYGVYEGYIDYWGQGSALTV
VL: DIQMTQSPASLSVSVGETVTITCRASEKIYSNLAWYQQKEGKSPQLLVYAAIRLADGVPSRFSGSGSGTQFSLKINSLQSEDFGTYYCQHFWGTPLTFGAGTKLELK
B2: monoclonal antibody 7G6 (antibody, V domains shown)
VH: EVQLQQSGPELVKPGASVKISCKASGYTFTDYNMHWVKQSLGKSLEWIGYIYPNNGGTGYNQKFESKATLTVDNSSSTAYMELRTLTSEDSAVYYCVRSGAYYFNYLVPYFDYWGQGTTLTVSS
VL: NIVLTQSPASLAVSLGQRATISCRASESVDIYGNSFMHWYQQKPGQPPKLLIYLASKLECGVCARFNGSGCRTDFTLAIDPVEGDDGATYYCQQNYEDPWTFGGGTKLEIK
B3: monoclonal antibody 11B10 (antibody, V domains shown)
VH: B2 VH with D31G, L41H, Y50K, G57V, K63E, E65R, T85S, V93I, Y95F, F104V
VL: B2 VL with L15P, V29I, Q42K, L54R, K57N, C60S, C63P, C71S, A78T

biological target: HA protein of B/Singapore/3/1964 (Influenza B virus B/Singapore/3/1964) (UniProt P03464); assay: cell-based or functional assay

| Binder | HI titer (dilution fold) | Neutralization titer [titer] |
| --- | --- | --- |
| B1 | 400 | 6400 |
| B2 | 3200 | > 25600 |
| B3 | < 100 | 800 |

biological target: HA protein of B/Xiamen/1346/2008 (Victoria lineage) (Influenza B virus B/Xiamen/1346/2008 (Victoria lineage)) (UniProt P22092); assay: cell-based or functional assay

| Binder | HI titer (dilution fold) | Neutralization titer [titer] |
| --- | --- | --- |
| B1 | < 100 | 3200 |
| B2 | 6400 | 6400 |
| B3 | 3200 | 3200 |

biological target: HA protein of influenza A virus A/Brisbane/10/2007 (seasonal H3N2) (Influenza A virus A/Brisbane/10/2007 (H3N2)); assay: cell-based or functional assay

| Binder | HI titer (dilution fold) | Neutralization titer [titer] |
| --- | --- | --- |
| B1 | < 100 | < 100 |
| B2 | < 100 | < 100 |
| B3 | < 100 | < 100 |

biological target: HA protein of influenza B virus B/Brisbane/33/2008 (Victoria lineage) (Influenza B virus B/Brisbane/33/2008); assay: cell-based or functional assay

| Binder | HI titer (dilution fold) | Neutralization titer [titer] |
| --- | --- | --- |
| B1 | 3200 | > 25600 |
| B2 | 3200 | > 25600 |
| B3 | < 100 | 800 |

biological target: HA protein of influenza B virus B/Brisbane/60/2008 (Victoria lineage) (Influenza B virus B/Brisbane/60/2008); assay: cell-based or functional assay

| Binder | HI titer (dilution fold) | Neutralization titer [titer] |
| --- | --- | --- |
| B1 | 3200 | > 25600 |
| B2 | 3200 | 12800 |
| B3 | < 100 | 3200 |

biological target: HA protein of influenza B virus B/Florida/4/2006 (Yamagata lineage) (Influenza B virus B/Florida/4/2006); assay: cell-based or functional assay

| Binder | HI titer (dilution fold) | Neutralization titer [titer] |
| --- | --- | --- |
| B1 | 12800 | > 25600 |
| B2 | > 25600 | > 25600 |
| B3 | 400 | 6400 |

biological target: HA protein of influenza B virus B/Great Lakes/1739/1954 (Influenza B virus B/Great Lakes/1739/1954); assay: cell-based or functional assay

| Binder | HI titer (dilution fold) | Neutralization titer [titer] |
| --- | --- | --- |
| B1 | 1600 | > 25600 |
| B2 | < 100 | < 100 |
| B3 | < 100 | < 100 |

biological target: HA protein of influenza B virus B/Harbin/7/1994 (Yamagata lineage) (Influenza B virus B/Harbin/7/1994); assay: cell-based or functional assay

| Binder | HI titer (dilution fold) | Neutralization titer [titer] |
| --- | --- | --- |
| B1 | 200 | 3200 |
| B2 | < 100 | < 100 |
| B3 | < 100 | < 100 |

biological target: HA protein of influenza B virus B/Hong Kong/330/2001 (Victoria lineage) (Influenza B virus B/Hong Kong/330/2001); assay: cell-based or functional assay

| Binder | HI titer (dilution fold) | Neutralization titer [titer] |
| --- | --- | --- |
| B1 | 3200 | > 25600 |
| B2 | > 25600 | > 25600 |
| B3 | 800 | > 25600 |

biological target: HA protein of influenza B virus B/Lee/1940 (Influenza B virus B/Lee/1940) (UniProt P03460); assay: cell-based or functional assay

| Binder | HI titer (dilution fold) | Neutralization titer [titer] |
| --- | --- | --- |
| B1 | 6400 | 6400 |
| B2 | 1600 | 1600 |
| B3 | < 100 | < 100 |

biological target: HA protein of influenza B virus B/Malaysia/2506/2004 (Victoria lineage) (Influenza B virus B/Malaysia/2506/2004); assay: cell-based or functional assay

| Binder | HI titer (dilution fold) | Neutralization titer [titer] |
| --- | --- | --- |
| B1 | 3200 | 12800 |
| B2 | 6400 | > 25600 |
| B3 | 3200 | > 25600 |

biological target: HA protein of influenza B virus B/Maryland/1/1959 (Influenza B virus B/Maryland/1/1959) (UniProt P03461); assay: cell-based or functional assay

| Binder | HI titer (dilution fold) | Neutralization titer [titer] |
| --- | --- | --- |
| B1 | < 100 | 3200 |
| B2 | 6400 | 800 |
| B3 | < 100 | < 100 |

biological target: HA protein of influenza B virus B/Taiwan/2/1962 (Influenza B virus B/Taiwan/2/1962); assay: cell-based or functional assay

| Binder | HI titer (dilution fold) | Neutralization titer [titer] |
| --- | --- | --- |
| B1 | < 100 | 1600 |
| B2 | 12800 | 12800 |
| B3 | 800 | 800 |

biological target: HA protein of influenza B virus B/Xiamen/1147/2008 (Yamagata lineage) (Influenza B virus B/Xiamen/1147/2008); assay: cell-based or functional assay

| Binder | HI titer (dilution fold) | Neutralization titer [titer] |
| --- | --- | --- |
| B1 | < 100 | 1600 |
| B2 | > 25600 | > 25600 |
| B3 | 800 | 800 |

biological target: HA protein of influenza B virus B/Xiamen/165/2007 (Victoria lineage) (Influenza B virus B/Xiamen/165/2007); assay: cell-based or functional assay

| Binder | HI titer (dilution fold) | Neutralization titer [titer] |
| --- | --- | --- |
| B1 | < 100 | 6400 |
| B2 | 12800 | 12800 |
| B3 | 3200 | 3200 |

biological target: HA protein of influenza B virus B/Xiamen/3043/2006 (Victoria lineage) (Influenza B virus B/Xiamen/3043/2006); assay: cell-based or functional assay

| Binder | HI titer (dilution fold) | Neutralization titer [titer] |
| --- | --- | --- |
| B1 | < 100 | 3200 |
| B2 | 12800 | 12800 |
| B3 | 6400 | 6400 |

biological target: HA protein of influenza B virus B/Xiamen/756/2007 (Yamagata lineage) (Influenza B virus B/Xiamen/756/2007); assay: cell-based or functional assay

| Binder | HI titer (dilution fold) | Neutralization titer [titer] |
| --- | --- | --- |
| B1 | < 100 | 1600 |
| B2 | 12800 | 12800 |
| B3 | 400 | 400 |

biological target: HA protein of influenza B virus B/Xiamen/891/2006 (Yamagata lineage) (Influenza B virus B/Xiamen/891/2006); assay: cell-based or functional assay

| Binder | HI titer (dilution fold) | Neutralization titer [titer] |
| --- | --- | --- |
| B1 | < 100 | 1600 |
| B2 | > 25600 | > 25600 |
| B3 | 800 | 800 |

biological target: HA protein of influenza B virus B/Xiamen/N639/2010 (Victoria lineage) (Influenza B virus B/Xiamen/N639/2010); assay: cell-based or functional assay

| Binder | HI titer (dilution fold) | Neutralization titer [titer] |
| --- | --- | --- |
| B1 | < 100 | 3200 |
| B2 | 3200 | 3200 |
| B3 | 400 | 400 |

biological target: HA protein of influenza B virus B/Xiamen/N678/2012 (Victoria lineage) (Influenza B virus B/Xiamen/N678/2012); assay: cell-based or functional assay

| Binder | HI titer (dilution fold) | Neutralization titer [titer] |
| --- | --- | --- |
| B1 | < 100 | 1600 |
| B2 | 6400 | 6400 |
| B3 | 400 | 400 |

biological target: HA protein of influenza B virus B/Xiamen/N697/2012 (Yamagata lineage) (Influenza B virus B/Xiamen/N697/2012); assay: cell-based or functional assay

| Binder | HI titer (dilution fold) | Neutralization titer [titer] |
| --- | --- | --- |
| B1 | < 100 | 800 |
| B2 | > 25600 | > 25600 |
| B3 | 800 | 800 |
